Experimental data reported in publication PMC4848949, “Bacterial Expression and Kinetic Analysis of Carboxylesterase 001D from Helicoverpa armigera” (International Journal of Molecular Sciences, 2016).

substrate: CC(=O)Oc1cccc2ccccc12; experiment: purified protein; format: biochemical, Helicoverpa armigera; conditions: 0.1 M sodium phosphate pH 7.0, 30 °C

Protein	Km	kcat
Trx/6×His/S-tag/001D (pET32a-001D) (Helicoverpa armigera) (protein, mature enzyme, signal peptide (residues 1-16) removed; N-terminal Trx/6×His/S-tag kept; E. coli BL21(DE3), Ni-NTA; about 79 kDa; full precursor 554 residues) DDEWREVRTAQGPVRGRKHPTADMYAFYNIPYATAPTGEDKFKAPLPGPVWLEPFDAVDERVVCPQAKLPMDIMKNVVEKENCLIANVFVPNTEEKNLSVVVYVHGGAFIIGSGNMIQATHLMKTNDFIMVSFNYRLGIHGFLCLGTEDAPGNAGMKDQVALLRWVQKNIASFGGNPDDVTIVGSSAGSASVDLLMLSKSAEGLFHRVIPESGGNLAAFTVQRDPVEIAKTHAKKLNFNNVDDIYALEEFYKTVPMELLTSDHFFDRTDATFVFGPCVERDTGDGAFLTESPLSILKSGNYRKLPLLYGFAEMEGLMRINVFELWKHKMNEKFSDFLPADLKFDSEEEREEVANKIKRFYFGDKPVGDENVLKYVDYFSDVYFAYSMLWAVKLHAEAGNNQVYLYEYSFVDEDTPLVPHTNVRGADHCTQTMAVYDMKNITHEDESLATPELQKMKKVVREIWHNFIKTGVPVPEGSWLPAWPAAGADRAPHMSLGERLELRGALLPERTRFWDDIYQRYYRDAVPPPTPPPRPRSEL	7.61(0.63) µM	2.29(0.08) s^-1
6×His/001D (pE1-001D) (Helicoverpa armigera) (protein, mature enzyme, signal peptide (residues 1-16) removed; N-terminal 6×His tag kept; E. coli BL21(DE3), Ni-NTA; about 63 kDa) DDEWREVRTAQGPVRGRKHPTADMYAFYNIPYATAPTGEDKFKAPLPGPVWLEPFDAVDERVVCPQAKLPMDIMKNVVEKENCLIANVFVPNTEEKNLSVVVYVHGGAFIIGSGNMIQATHLMKTNDFIMVSFNYRLGIHGFLCLGTEDAPGNAGMKDQVALLRWVQKNIASFGGNPDDVTIVGSSAGSASVDLLMLSKSAEGLFHRVIPESGGNLAAFTVQRDPVEIAKTHAKKLNFNNVDDIYALEEFYKTVPMELLTSDHFFDRTDATFVFGPCVERDTGDGAFLTESPLSILKSGNYRKLPLLYGFAEMEGLMRINVFELWKHKMNEKFSDFLPADLKFDSEEEREEVANKIKRFYFGDKPVGDENVLKYVDYFSDVYFAYSMLWAVKLHAEAGNNQVYLYEYSFVDEDTPLVPHTNVRGADHCTQTMAVYDMKNITHEDESLATPELQKMKKVVREIWHNFIKTGVPVPEGSWLPAWPAAGADRAPHMSLGERLELRGALLPERTRFWDDIYQRYYRDAVPPPTPPPRPRSEL	19.72(6.69) µM	0.35(0.05) s^-1
6×His/S-tag/001D (pET30a-001D) (Helicoverpa armigera) (protein, mature enzyme, signal peptide (residues 1-16) removed; N-terminal 6×His/S-tag kept; E. coli BL21(DE3), Ni-NTA; about 67 kDa) DDEWREVRTAQGPVRGRKHPTADMYAFYNIPYATAPTGEDKFKAPLPGPVWLEPFDAVDERVVCPQAKLPMDIMKNVVEKENCLIANVFVPNTEEKNLSVVVYVHGGAFIIGSGNMIQATHLMKTNDFIMVSFNYRLGIHGFLCLGTEDAPGNAGMKDQVALLRWVQKNIASFGGNPDDVTIVGSSAGSASVDLLMLSKSAEGLFHRVIPESGGNLAAFTVQRDPVEIAKTHAKKLNFNNVDDIYALEEFYKTVPMELLTSDHFFDRTDATFVFGPCVERDTGDGAFLTESPLSILKSGNYRKLPLLYGFAEMEGLMRINVFELWKHKMNEKFSDFLPADLKFDSEEEREEVANKIKRFYFGDKPVGDENVLKYVDYFSDVYFAYSMLWAVKLHAEAGNNQVYLYEYSFVDEDTPLVPHTNVRGADHCTQTMAVYDMKNITHEDESLATPELQKMKKVVREIWHNFIKTGVPVPEGSWLPAWPAAGADRAPHMSLGERLELRGALLPERTRFWDDIYQRYYRDAVPPPTPPPRPRSEL	12.51(2.14) µM	0.60(0.06) s^-1
